Test results reported in patent US20040009571A1 (published 2004).
Residue numbers refer to the chain shown, from its start. Names may count otherwise.

B1: wild type STAT1 N-domain (human STAT1 amino acid residues 1 to 124) (other, UniProt P42224 1-124, looked up)
chain: MSQWYELQQLDSKFLEQVHQLYDDSFPMEIRQYLAQWLEKQDWEHAANDVSFATIRFHDLLSQLDDQYSRFSLENNFLLQHNIRKSKRNLQDNFQEDPIQMSMIIYSCLKEERKILENAQRFNQ
notes: range 1-124; Expressed in E. coli as a GST fusion and released with TEV protease; also called N-domain of human STAT1
B2: STAT1 N-domain (R70A) (other, human, UniProt P42224 1-124, looked up)
chain: B1 chain with R70A
notes: range 1-124; Interface I mutant; GST fusion cleaved with TEV protease
B3: STAT1 N-domain (L78A) (other, human, UniProt P42224 1-124, looked up)
chain: B1 chain with L78A
notes: range 1-124; Interface II mutant; GST fusion cleaved with TEV protease; Its CD spectrum was identical to wild type; also called STAT1 L78A
B4: STAT1 N-domain (Q41A) (other, human, UniProt P42224 1-124, looked up)
chain: B1 chain with Q41A
notes: as for B2
B5: STAT1 N-domain (W37F) (other, human, UniProt P42224 1-124, looked up)
chain: B1 chain with W37F
notes: range 1-124; Interface I mutant; GST fusion cleaved with TEV protease; also called N-domain of STAT1 (W37F)
B6: STAT1 N-domain (E29A) (other, human, UniProt P42224 1-124, looked up)
chain: B1 chain with E29A
notes: range 1-124; Interface II mutant; GST fusion cleaved with TEV protease
B7: STAT1 N-domain (L15A) (other, human, UniProt P42224 1-124, looked up)
chain: B1 chain with L15A
notes: as for B6
B8: STAT1 N-domain (F77A) (other, human, UniProt P42224 1-124, looked up)
chain: B1 chain with F77A
notes: range 1-124; Interface II mutant; GST fusion cleaved with TEV protease; Its CD spectrum was identical to wild type; also called STAT1 F77A
B9: STAT1 N-domain (M28A) (other, human, UniProt P42224 1-124, looked up)
chain: B1 chain with M28A
notes: as for B6
B10: STAT1 N-domain (Q36A) (other, human, UniProt P42224 1-124, looked up)
chain: B1 chain with Q36A
notes: as for B2
B11: STAT1 N-domain (Q8A) (other, human, UniProt P42224 1-124, looked up)
chain: B1 chain with Q8A
notes: as for B6

Experiments:
[1] = biological target: STAT1 N-domain (S12A) (human) (UniProt P42224); assay: analytical ultracentrifugation, sedimentation equilibrium; self-association
[2] = biological target: the molecule itself; assay: analytical ultracentrifugation, sedimentation equilibrium; self-association (monomer 15,223 Da)
Procedure: (§1) As described below, point mutations in STAT1 were introduced at several sites at each of Interface I and II. The point mutation introduced in each of the STAT1 N-domain mutant proteins is indicated in the first column. The approximate molecular weight estimated by sedimentation equilibrium experiments, and migration as a monomer or dimer species on gel filtration analysis, is shown for each mutant protein.
(§2) For gel filtration analysis, 1.5 mg of purified STAT N domain protein in a volume of 500 μl was run on a 120 ml Superdex 75 column at a flow rate of 0.5 ml/min, in 50 mM Tris, pH 8.0, 100 mM NaCl and 1 mM DTT. Equilibrium sedimentation experiments were performed using a Beckman Optima XL-A analytical ultracentrifuge with an An-60 Ti rotor and six-sector cells. STAT N-domain proteins at concentrations of 0.65, 0.32 and 0.16 mg/ml were centrifuged in the gel filtration buffer, at 25,000 rev/min. at 4° C. for 20 h. Subsequently, absorbance measurements at 280 nm were taken in 0.001 cm radial steps and equilibrium was ascertained by comparing scans taken at 1 h intervals. The Optima XL-A/XL-I data analysis software from Beckman Coulter was used for data processing and curve fitting. A partial specific volume of 0.73 cm³/g was used and background absorbance was corrected empirically by allowing the baseline to float during the fitting calculations.

[3] = biological target: the molecule itself; assay: analytical ultracentrifugation, sedimentation equilibrium; self-association
Procedure: as §1, §2

[4] = biological target: the molecule itself; assay: analytical ultracentrifugation, sedimentation equilibrium (self-association)
Source text: Not only is Interface II more extensive than Interface I, it also involves interactions between hydrophobic residues (unlike the essentially polar nature of Interface I). Certain residues at interface II were individually replaced by Ala (Table 1) and the mutant STAT N-domains were examined for dimerization. […] The results for mutations at the other side of the interface provide evidence for interference with dimer formation. M28A migrated as an intermediate between dimer and monomer on gel filtration analysis, but appeared as a dimer by analytical ultracentrifugation analysis. […] The hydrophobic nature of the residues at positions 77 and 78 is conserved between STAT1 and STAT4, which has leucine residues at both positions. Likewise, Met 28 is conserved in STAT4.
For gel filtration analysis, 1.5 mg of purified STAT N domain protein in a volume of 500 μl was run on a 120 ml Superdex 75 column at a flow rate of 0.5 ml/min, in 50 mM Tris, pH 8.0, 100 mM NaCl and 1 mM DTT. […] Subsequently, absorbance measurements at 280 nm were taken in 0.001 cm radial steps and equilibrium was ascertained by comparing scans taken at 1 h intervals. […] A partial specific volume of 0.73 cm³/g was used and background absorbance was corrected empirically by allowing the baseline to float during the fitting calculations.

[5] = biological target: the molecule itself; assay: gel filtration on Superdex 75 (self-association)
Procedure: as §2

Molecule	molecular weight by sedimentation equilibrium [3] [kDa]	also measured
STAT1 N-domain (S12A) (from UniProt P42224 1-124)		molecular weight by sedimentation equilibrium [1]: 17 kDa
B1		molecular weight by sedimentation equilibrium [2]: ~28 kDa
B2	~27	
B3		molecular weight by sedimentation equilibrium [2]: ~15 kDa; binding result [4]: no binding (tested: 0.65, 0.32 and 0.16 mg/ml)
B4	~27	
B5	~28	
B6	~27	
B7	~28	
B8		molecular weight by sedimentation equilibrium [2]: ~15 kDa; binding result [5]: no binding (tested: 1.5 mg in 500 µl)
B9	~26	
B10	~29	
B11	~27	
